In PMC8770954 (Frontiers in Immunology, 2021):

B1: 7B2 (antibody, V domains shown)
VH: QVQLVQSGGGVFKPGGSLRLSCEASGFTFTEYYMTWVRQAPGKGLEWLAYISKNGEYSKYSPSSNGRFTISRDNAKNSVFLQLDRLSADDTAVYYCARADGLTYFSELLQYIFDLWGQGARVTVSS
VL: ETTLTQSPDSLAVSPGERATIHCKSSQTLLYSSNNRHSIAWYQQRPGQPPKLLLYWASMRLSGVPDRFSGSGSGTDFTLTINNLQAEDVAIYYCHQYSSHPPTFGHGTRVELR
B2: rhesus macaque FcγRIIIa-1 (I158) (receptor)
chain: EDLPKAVVFLEPQWYRVLEKDSVTLKCQGAYSPEDNSTRWFHNESLISSQTSSYFIAAARVNNSGEYRCQTSLSTLSDPVQLEVHIGWLLLQAPRWVFKEEESIHLRCHSWKNTLLHKVTYLQNGKGRKYFHQNSDFYIPKATLKDSGSYFCRGLIGSKNVSSETVNITITQDLAVSSISSFFPPG
B3: rhesus macaque FcγRIIIa-3 (V158) (receptor)
chain: EDLPKAVVFLEPQWYRVLEKDSVTLKCQGAYSPEDNSTRWFHNESLISSQTSSYFIAAARVNNSGEYRCQTSLSTLSDPVQLEVHIGWLLLQAPRWVFKEEESIHLRCHSWKNTLLHKVTYLQNGKGRKYFHQNSDFYIPKATLKDSGSYFCRGLVGSKNVSSETVNITITQDLAVSSISSFFPPG
modifications: N-glycosylated soluble ectodomain; limits from the UniProt extracellular domain. Mature 158 = precursor 176 (offset 18). Only V158 (against I158 in variant 1) is printed; other allelic differences of
B4: human FcγRIIa (R131) (receptor)
chain: QAAAPPKAVLKLEPPWINVLQEDSVTLTCQGARSPESDSIQWFHNGNLIPTHTQPSYRFKANNNDSGEYTCQTGQTSLSDPVHLTVLSEWLVLQTPHLEFQEGETIMLRCHSWKDKPLVKVTFFQNGKSQKFSRLDPTFSIPQANHSHSGDYHCTGNIGYTLFSSKPVTITVQVPSMGSSSPMG
B5: RhDH677.3 IgG1 (antibody, V domains shown)
VH: QVQLVQSGAEVKKPGASVKLSCKASGYTFTSYDINWVRQAPGQGLEWMGWMNPKTGNTGYAQKFQGRVTMTRDTSTSTAYMELSSLRSEDTAVYYCATYRIIAAVGYRYFQYWGQGALVTVSS
VL: AIQMTQSPSSLSASVGDKVTITCRASQGFGNYLAWYQQKPGKVPKLLIYAATTLQSEVPSRFSGSGSGTDFTLTISSLQPEDVATYYCQKYNSAPFTFGQGTRLEIK
notes: also called rhesusized DH677.3
B6: RhDH827 IgG1 (antibody, V domains shown)
VH: EVQLVESGGGLVQPGGSLRLSCAASGFTFSNCAMHWVRQAPGKGLEWVAVISYHGSNKYYADYVKGRFTISRDNSKNMLYLQMNNLKLEDTAVYYCAREGGAPSGWALDYWGQGVLVTVSS
VL: SYELTQSPSVSVSPGQPASITCSGDKLGDKYACWYQQKPGQVPVLVIYEDTKRPSGIPERFSGSNSGNTATLTISGVEAGDEADYYCQAWDSITHVVFGGGTRLTVL
notes: also called rhesusized DH827
B7: DH827 (human IgG1) (antibody, V domains shown)
VH: EVQLVESGGGVVQPGRSLRLSCAASGFTFSNCAMHWVRQAPGKGLEWVAVISYHGSNKYYADYVKGRFTISRDNSKSTVYLQMNSPRAEDTAVYYCAKEGGAPSGWALDYWGQGTLVTVSS
VL: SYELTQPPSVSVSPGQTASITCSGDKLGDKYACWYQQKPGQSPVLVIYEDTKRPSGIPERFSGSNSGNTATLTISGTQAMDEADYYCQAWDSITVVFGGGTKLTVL
notes: also called human DH827
B8: Rh7B2 IgG1 (antibody, V domains shown)
VH: EVQLVESGGGLVQPGGSLRLSCAASGFTFTEYYMSWVRQAPGKGLEWVSYISKNGEYSYYADSVKGRFTISRDNAKNSLSLQMSSLRAEDTAVYYCTRADGLTYFSELLQYIFDLWGQGVLVTVSS
VL: DIVMTQSPDSLAVSLGERVTINCKSSQTLLYSSNNRHSIAWYQQKPGQAPKLLIYWASMRLSGVPNRFSGSGSGTDFTLTISGLQAEDVAVYYCHQYSSHPPTFGQGTKVEIK
notes: also called rhesusized 7B2

Assays:
[1] = target: synthetic gp41 peptide (residues 596-606) with C-terminal amidation (HIV-1 subtype B BaL, UniProt Q6TAP7)
[2] = target: RhDH677.3 IgG1 (rhesusized variant of human DH677.3) (rhesus macaque (Macaca mulatta)); assay: SPR; imaging SPR (IBIS MX96); IgG immobilised on a carboxymethyldextran sensor (CMD200M) by carbodiimide chemistry with a Continuous Flow Microspotter, printed at 300 and 150 nM; soluble receptor as analyte from 20 uM, 1:3 over 8 points; 5 min association and 5 min dissociation; equilibrium KD (Scrubber 2); conditions: both partners purified
[3] = target: Rh7B2 IgG1 (rhesusized variant of human 7B2) (rhesus macaque (Macaca mulatta)); assay: as above; conditions: both partners purified
[4] = target: RhDH827 IgG1 (rhesusized variant of human DH827) (rhesus macaque (Macaca mulatta)); assay: as above; conditions: both partners purified
[5] = target: RM JR4 IgG1 (rhesus macaque mAb, C1C2 Cluster A region) (rhesus macaque (Macaca mulatta)); assay: as above; conditions: both partners purified
[6] = target: T1, Env of HIV-1 IMC CH505 on infected CEM.NKR_(CCR5) cells (HIV-1 subtype C CH505 (703010505), strain); assay: flow cytometry on cells; conditions: one partner purified
T1 construct: source: HIV-1 IMC-infected CEM.NKR_(CCR5) cells, on the cell surface

[7] = target: T2, Env of HIV-1 IMC SF162 on infected CEM.NKR_(CCR5) cells (HIV-1 subtype B SF162, UniProt P19550, strain); assay: flow cytometry on cells; conditions: one partner purified
T2 construct: source: HIV-1 IMC-infected CEM.NKR_(CCR5) cells, on the cell surface

[8] = target: T3, Env of SHIV SF162.P3 on infected A66 cells (SHIV SF162.P3 Env (stand-in: parental …, UniProt P19550, strain)); assay: flow cytometry on cells; conditions: one partner purified
T3 construct: source: SHIV-infected A66 cells, on the cell surface

[9] = target: T4, monomeric full length single chain (FLSC), a covalent dimer of gp120BaL and CD4 (HIV-1 subtype B BaL (gp120); Homo …, UniProt Q6TAP7;P01730); assay: SPR; Biacore 3000; IgG immobilized on a protein A chip, antigen flowed over (FLSC 6.25-200 nM; gp41 peptide 6.4-25.6 μM; V2 peptide 12.5-50 μM); 10 mM HEPES pH 7.5, 150 mM NaCl, 0.05% Tween 20, 25 °C; 1:1 Langmuir model; conditions: both partners purified
T4 construct: gp120 of HIV-1 BaL; CD4, domain 1 and 2

[10] = target: T5, Env of HIV-1 IMC 1086.C on infected CEM.NKR_(CCR5) cells (HIV-1 subtype C 1086.C, UniProt C6G099, strain); assay: flow cytometry on cells; conditions: one partner purified
T5 construct: also called HIV-1 1086; source: HIV-1 IMC-infected CEM.NKR_(CCR5) cells, on the cell surface

Chain of RM JR4 IgG1 (rhesus macaque mAb, C1C2 Cluster A region) (rhesus macaque (Macaca mulatta)) (heavy, as listed by the source, chain 1 of 2): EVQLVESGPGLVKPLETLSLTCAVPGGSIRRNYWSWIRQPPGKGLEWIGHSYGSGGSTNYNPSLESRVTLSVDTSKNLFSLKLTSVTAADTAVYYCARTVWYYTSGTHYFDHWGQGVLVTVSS
Chain of RM JR4 IgG1 (rhesus macaque mAb, C1C2 Cluster A region) (rhesus macaque (Macaca mulatta)) (light, as listed by the source, chain 2 of 2): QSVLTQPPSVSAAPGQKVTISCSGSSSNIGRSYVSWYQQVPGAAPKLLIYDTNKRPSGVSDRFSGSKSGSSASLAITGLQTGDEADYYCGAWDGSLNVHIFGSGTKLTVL

Binder | binding result [1] | Kd [2] [µM] | Kd [3] [µM] | Kd [4] [µM] | Kd [5] [µM] | binding result [6] | binding result [7] | binding result [8] | fold change of KD against human DH677.3 [9] [fold] | binding result [10]
B1 | binds | – | – | – | – | – | – | – | – | –
B2 | – | 1.1 | 1 | 1.3 | 1.1 | – | – | – | – | –
B3 | – | 1.5 | 1.6 | 1.9 | 1.6 | – | – | – | – | –
B4 | – | 4.6 | 2.9 | 4.6 | 2 | – | – | – | – | –
B5 | – | – | – | – | – | binds | binds | binds | ~8 | –
B6 | – | – | – | – | – | binds | binds | binds | – | binds
B7 | – | – | – | – | – | binds | binds | – | – | binds
B8 | – | – | – | – | – | binds | binds | binds | – | binds
